Laboratory results: the supplement of paper PMC7877785
± gives the uncertainty stated by the source.

Experiment: self-splicing fitness, log relative to wild type (ln ratio); higher = more splicing; Tetrahymena group I intron in knt gene, E. coli kanamycin selection, DiMSum; sequences stand for … in CUCUCU…GGAGGGAAAAGUUAUCAGGCAUGCACCUGGUAGCUAGUCUUUAAACCAAUAGAUUGCAUCGGUUUAAAAGGCAAGACCGUCAAAUUGCGGGAAAGGGGUCAACAGCCGUUCAGUACCAAGUCUCAGGGGAAACUUUGAGAUGGCCUUGCAAAGGGUAUGGUAAUAAGCUGACGGACAUGGUCCUAACCACGCAGCCAAGUCCUAAGUCAACAGAUCUUCUGUUGAUAUGGAUGCAGUUCACAGACUAAAUGUCGGUCGGGGAAGAUGUAUUCUUCUCAUAAGAUAUAGUCGGACCUCUCCUUAAUGGGAGCUAGCGGAUGAAGUGAUGCAACACUGGAGCCGCUGGGAACUAAUUUGUAUGCGAAAGUAUAUUGAUUAGUUUUGGAGUACUCGUGGUCG
How it was run: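 Colonies from six replicate transformations of E. coli BL21(DE3) were pooled and amplicon-sequenced on an Illumina HiSeq 2500. The library placed an intron with all eight P1ex-region nucleotides randomised inside the knt kanamycin-resistance gene on pET-22b(+), and cells grew overnight at 37°C or 30°C on LB agar with or without 25 μg/mL kanamycin (plus 100 μg/mL carbenicillin, 50 μM IPTG, 0.2% rhamnose). Fitness is the DiMSum error-weighted combination of wild-type-normalised replicate fold changes, kanamycin versus none.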

Row | Sequence | self-splicing fitness (ln) (30 °C) | self-splicing fitness (ln) (37 °C)
1 | UAAUAGCAAUAUUACGAUAA | -3.33 ± 0.2 | -1.78 ± 0.16
2 | GUCAAGCAAUAUUACGGUAA | -1.28 ± 0.18 | -0.000783 ± 0.17
3 | AUAUAGCAAUAUUACGAAGC | -2.96 ± 0.31 | 
4 | CCUUAGCAAUAUUACGCGUC | -4.42 ± 0.39 | -2.91 ± 0.31
5 | GUUAAGCAAUAUUACGACGU | -0.121 ± 0.059 | 0.426 ± 0.069
6 | CUUUAGCAAUAUUACGUUGG | -3.1 ± 0.24 | -1.86 ± 0.27
7 | CCCCAGCAAUAUUACGACCU | -3.23 ± 0.15 | -2.32 ± 0.23
8 | ACCUAGCAAUAUUACGUUUA | -3.18 ± 0.17 | -2.68 ± 0.17
9 | UCGUAGCAAUAUUACGCACG | -1.8 ± 0.23 | -0.584 ± 0.2
10 | CGAAAGCAAUAUUACGUCGC | -3.03 ± 0.21 | -2.59 ± 0.23
11 | GCUGAGCAAUAUUACGGGCA | -1.76 ± 0.39 | -2.69 ± 0.36
12 | AUAAAGCAAUAUUACGUUUA | -0.935 ± 0.065 | -0.201 ± 0.08
13 | UAAGAGCAAUAUUACGUGGU | -3.74 ± 0.24 | -2.57 ± 0.19
14 | GGUAAGCAAUAUUACGUUAG | -3.15 ± 0.18 | -1.72 ± 0.19
15 | ACCCAGCAAUAUUACGAGAG | -2.16 ± 0.086 | -0.789 ± 0.09
16 | UACCAGCAAUAUUACGGUAG | -2.15 ± 0.086 | -1.16 ± 0.083
17 | AGCGAGCAAUAUUACGAGCU | -3.17 ± 0.24 | -2.49 ± 0.22
18 | AAGAAGCAAUAUUACGUCUC | -2.04 ± 0.12 | -1.69 ± 0.16
19 | AAAUAGCAAUAUUACGCGUC | -2.19 ± 0.16 | -0.755 ± 0.19
20 | GAGGAGCAAUAUUACGGUCC | -2.95 ± 0.16 | -0.994 ± 0.2
21 | GAAAAGCAAUAUUACGCCUU | -0.813 ± 0.11 | -0.558 ± 0.13
22 | UUCAAGCAAUAUUACGGCGU | -1.61 ± 0.094 | -0.465 ± 0.12
23 | CCUCAGCAAUAUUACGGUCU | -3.73 ± 0.25 | -2.56 ± 0.27
24 | AACUAGCAAUAUUACGACGG | -2.21 ± 0.14 | -0.86 ± 0.21
25 | CAAGAGCAAUAUUACGGCCA | -2.08 ± 0.38 | -2.62 ± 0.48

Row | Sequence | self-splicing fitness (ln) (30 °C) | self-splicing fitness (ln) (37 °C)
26 | ACAGAGCAAUAUUACGCGAU | -3.54 ± 0.24 | -3.29 ± 0.3
27 | UUAGAGCAAUAUUACGCAAU | -2.21 ± 0.2 | -1.52 ± 0.41
28 | CUUCAGCAAUAUUACGGUAC | -3.21 ± 0.35 | -2.02 ± 0.33
29 | UCUCAGCAAUAUUACGGCCA | -2.65 ± 0.19 | -1.69 ± 0.21
30 | AAGAAGCAAUAUUACGUCCU | -0.0351 ± 0.12 | 0.363 ± 0.16
31 | UGGAAGCAAUAUUACGGUCA | -0.00492 ± 0.13 | 0.828 ± 0.15
32 | AGGCAGCAAUAUUACGCUUC |  | -1.31 ± 0.28
33 | GGUCAGCAAUAUUACGGUGA | -0.695 ± 0.074 | -1 ± 0.11
34 | GGAUAGCAAUAUUACGUUAG |  | -2 ± 0.23
35 | CGUGAGCAAUAUUACGUGCG | -3.21 ± 0.24 | -2.6 ± 0.32
36 | CGACAGCAAUAUUACGCAAC | -4.32 ± 0.31 | -2.61 ± 0.27
37 | CACGAGCAAUAUUACGAUGA | -3.21 ± 0.24 | -2.17 ± 0.23
38 | GAGAAGCAAUAUUACGCCUU | -2.46 ± 0.26 | -0.767 ± 0.27
39 | CUCAAGCAAUAUUACGGGCG | -2.1 ± 0.086 | -1.34 ± 0.094
40 | UAAAAGCAAUAUUACGCCCA | -0.0418 ± 0.15 | 0.358 ± 0.19
41 | ACCAAGCAAUAUUACGUAGG | -2.55 ± 0.068 | -2.03 ± 0.096
42 | CUGCAGCAAUAUUACGCCCU | -3.15 ± 0.37 | -1.71 ± 0.33
43 | CGUGAGCAAUAUUACGAUGA | -3.64 ± 0.23 | -2.04 ± 0.17
44 | UAUGAGCAAUAUUACGUCUC | -2.45 ± 0.25 | 
45 | AUCUAGCAAUAUUACGAACC | -1.08 ± 0.18 | -0.855 ± 0.2
46 | AAGGAGCAAUAUUACGAUCG | -1.99 ± 0.19 | -1.8 ± 0.27
47 | GGCAAGCAAUAUUACGCCAA | -1.93 ± 0.24 | -1.36 ± 0.21
48 | UGAUAGCAAUAUUACGGGGA | -3.16 ± 0.39 | -1.8 ± 0.26
49 | GAAAAGCAAUAUUACGAGGA | -2.03 ± 0.15 | -1.78 ± 0.16
